Experimental data published in patent US8329168.

System: Met-SC1-325-His-6 (fragment comprising residues 1-325 of staphylocoagulase with an additional Met at the NH2 terminus and a His tag fused to the COOH terminus)

Substance: IIQ320 (recombinant human prothrombin containing Gln in place of Arg-320)
- conformational activation (initial rates of S2238 hydrolysis): Conformational activation of IIQ320 and its covalent inactivation with FPR-CH2Cl was accomplished by the addition of 43 µM Met-SC1-325-His-6
